{"source": "paper PMC3911951", "about": "“Crystal Structure of Arginine Methyltransferase 6 from Trypanosoma brucei” (PLoS ONE, 2014)", "key": {"[1]": {"target": "Trypanosoma brucei arginine methyltransferase 6 (TbPRMT6) (Trypanosoma brucei)", "test": "ITC; 3 mM AcH4-21 peptide injected into 100 µM TbPRMT6 with SAH bound; 25°C; 30 mM Tris pH 8.0, 100 mM NaCl, 1 mM EDTA; one-binding-site model"}, "[2]": {"target": "Trypanosoma brucei arginine methyltransferase 6 (TbPRMT6), SAH-bound (Trypanosoma brucei)", "test": "ITC; AcH4-21 peptide (3 mM) injected into TbPRMT6 (100 uM) bound to SAH; MicroCal iTC200, 25 °C; 30 mM Tris pH 8.0, 100 mM NaCl, 1 mM EDTA; one-binding-site model"}, "[3]": {"target": "Trypanosoma brucei arginine methyltransferase 6 (TbPRMT6) (Trypanosoma brucei)", "test": "SAXS; FL-TbPRMT6 at 1.0, 3.0 and 5.0 mg/ml in 30 mM Tris pH 8.0, 200 mM NaCl, 1 mM EDTA; molecular mass by SAXSMOW"}}, "data": [{"substance": "peptide corresponding to the first 21 residues of bovine histone H4 (AcH4-21)", "values": [{"measurement": "Kd", "setting": "[1]", "result": 45, "unit": "µM"}]}, {"substance": "AcH4-21, peptide corresponding to the first 21 residues of bovine histone H4", "values": [{"measurement": "stoichiometry N", "setting": "[2]", "result": 1.79}]}, {"substance": "Trypanosoma brucei arginine methyltransferase 6 (TbPRMT6) (enzyme)", "values": [{"measurement": "stoichiometry N", "setting": "[3]", "result": 2}]}]}
